The text below walks through data of the RNAGym collection of RNA variant scans (doi:10.1093/nar/gkz1192).

The chains are these.
B1: CPEB3 Ribozyme (parent)
chain: UAACAGGGGGCCACAGCAGAAGCGUUCACGUCGCAGCCCCUGUCAGAUUCUGGUGAAUCUGCGAAUUCUGCUGUAUAUCUC

This series covers variants of B1. As to the kind of experiment: self-cleavage, relative activity (ratio to wild type); higher = more cleavage; in vitro, sequencing. The method, boiled down: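 Libraries of CPEB3 self-cleaving ribozyme mutants came from rounds of error-prone PCR and carried barcodes, which DNA sequencing matched to variants. In vitro transcription used T7 RNA polymerase at 37°C for 5 hours, with a further 15 min in DNase I before EDTA stopped the reaction; the ribozymes cleaved during both steps. The RNA was reverse transcribed with template switching and sequenced on Illumina. Relative activity is the cleaved/total read fraction of a variant divided by that of the unmutated ribozyme, averaged over three batches with at least 5 reads.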
UAACAGGGGGCCACAGCAGAAGCGUUCACGUCGCAGCCCUUGUCAGAUUCUGGUGAAUCUGCGAGUUCUGCUGUAUAUCUC [C40U A65G]: the self-cleavage is 0.27.
As for UAACAGGGGGCCACAGCAGAAGCGUUCACGUCGCAGCCCUUGUCAGAUUCUGGUGAAUCUGCGAUUUCUGCUGUAUAUCUC [C40U A65U], the self-cleavage came out at 0.37.
Then UAACAGGGGGCCACAGCAGAAGCGUUCACGUCGCAGCCCUUGUCAGAUUCUGGUAAAUCUGCGAAUUCUGCUGUAUAUCUC [C40U G55A], with 0.67.
As for UAACAGGGGGCCACAGCAGAAGCGUUCACGUCGCAGCCCUUGUCAGAUUCUGGUUAAUCUGCGAAUUCUGCUGUAUAUCUC [C40U G55U], the self-cleavage is 0.49.
The same measure for UAACAGGGGGCCACAGCAGAAGCGUUCACGUCGCAGCCCUUGACAGAUUCUGGUGAAUCUGCGAAUUCUGCUGUAUAUCUC [C40U U43A]: 0.92; for UAACAGGGGGCCACAGCAGAAGCGUUCACGUCGCAGCCCUUGCCAGAUUCUGGUGAAUCUGCGAAUUCUGCUGUAUAUCUC [C40U U43C]: 0.39; for UAACAGGGGGCCACAGCAGAAGCGUUCACGUCGCAGCCCUUGUCAAAUUCUGGUGAAUCUGCGAAUUCUGCUGUAUAUCUC [C40U G46A]: 0.18.
Regarding UAACAGGGGGCCACAGCAGAAGCGUUCACGUCGCAGCCCUUGUCAGAUUCGGGUGAAUCUGCGAAUUCUGCUGUAUAUCUC [C40U U51G], the self-cleavage worked out at 0.49.
On to UAACAGGGGGCCACAGCAGAAGCGUUCACGUCGCAGCCCUUGUCAGAUUCCGGUGAAUCUGCGAAUUCUGCUGUAUAUCUC [C40U U51C], for which the self-cleavage came out at 0.65.
For UAACAGGGGGCCACAGCAGAAGCGUUCACGUCGCAGCCCUUGUCAGAUUCAGGUGAAUCUGCGAAUUCUGCUGUAUAUCUC [C40U U51A], the self-cleavage turned out to be 0.84.
Then UAACAGGGGGCCACAGCAGAAGCGUUCACGUCGCAGCCCUCGUCAGAUUCUGGUGAAUCUGCGAAUUCUGCUGUAUAUCUC [C40U U41C], with 0.92.
The same measure for UAACAGGGGGCCACAGCAGAAGCGUUCACGUCGCAGCCCUAGUCAGAUUCUGGUGAAUCUGCGAAUUCUGCUGUAUAUCUC [C40U U41A]: 0.25.
In the case of UAACAGGGGGCCACAGCAGAAGCGUUCACGUCGCAGCCCUGGUCAGAUUCUGGUGAAUCUGCGAAUUCUGCUGUAUAUCUC [C40U U41G], the self-cleavage was determined as 0.16.
As to UAACAGGGGGCCACAGCAGAAGCGUUCACGUCGCAGCCCUUGUCAGAUUCUGGUGAAUCUGCGAAUUCUGCUGUAUAUCUC [C40U], the self-cleavage turned out to be 0.76.
Then UAACAGGGGGCCACAGCAGAAGCGUUCACGUCGCAGCCCUUGUCAGAUUCUGGUGAAUCUGCGAAUUCUGCUGUACAUCUC [C40U U76C], with 0.92.
The same measure for UAACAGGGGGCCACAGCAGAAGCGUUCACGUCGCAGCCCUUGUCAGAUUCUGGUGAAUCUGCGAAUUCUGCUCUAUAUCUC [C40U G73C]: 1.22; for UAACAGGGGGCCACAGCAGAAGCGUUCACGUCGCAGCCCGUGUCAGAUUCUGGUGAAUCUGCGAAUUCUGCUGUAUACCUC [C40G U78C]: 0.38; for UAACAGGGGGCCACAGCAGAAGCGUUCACGUCGCAGCCCUUGUCAGAUUCUGGUGAAUCCGCGAAUUCUGCUGUAUAUCUC [C40U U60C]: 0.3.
The same measure for UAACAGGGGGCCACAGCAGAAGCGUUCACGUCGCAGCCCUUGUCAGAUUCUGGUGAAUCGGCGAAUUCUGCUGUAUAUCUC [C40U U60G]: 0.
UAACAGGGGGCCACAGCAGAAGCGUUCACGUCGCAGCCCUUGUCAGAUUCUGGUGAAUCAGCGAAUUCUGCUGUAUAUCUC [C40U U60A]: the self-cleavage was found to be 0.34.
Turning to UAACAGGGGGCCACAGCAGAAGCGUUCACGUCGCAGCCCUUGUCAGAUUCUGGUGAAUCUGCGAAUUCUUCUGUAUAUCUC [C40U G70U], the self-cleavage was found to be 0.16.
Then UAACAGGGGGCCACAGCAGAAGCGUUCACGUCGCAGCCCUUGUCCGAUUCUGGUGAAUCUGCGAAUUCUGCUGUAUAUCUC [C40U A45C], with 0.17; and UAACAGGGGGCCACAGCAGAAGCGUUCACGUCGCAGCCCUUGUCGGAUUCUGGUGAAUCUGCGAAUUCUGCUGUAUAUCUC [C40U A45G], with 0.55; and UAACAGGGGGCCACAGCAGAAGCGUUCACGUCGCAGCCCUUGUCUGAUUCUGGUGAAUCUGCGAAUUCUGCUGUAUAUCUC [C40U A45U], with 0.15.
Then UAACAGGGGGCCACAGCAGAAGCGUUCACGUCGCAGCCCUUGUCAGAUUCUGGUGAAUCUGCGAAUUGUGCUGUAUAUCUC [C40U C68G], with 0.28; and UAACAGGGGGCCACAGCAGAAGCGUUCACGUCGCAGCCCUUAUCAGAUUCUGGUGAAUCUGCGAAUUCUGCUGUAUAUCUC [C40U G42A], with 0.27.
For the variant UAACAGGGGGCCACAGCAGAAGCGUUCACGUCGCAGCCCUUGUCAGAUUCUGAUGAAUCUGCGAAUUCUGCUGUAUAUCUC [C40U G53A], the self-cleavage stood at 0.84.
Turning to UAACAGGGGGCCACAGCAGAAGCGUUCACGUCGCAGCCCUUGUCAGAUUCUGGUGCAUCUGCGAAUUCUGCUGUAUAUCUC [C40U A56C], the self-cleavage turned out to be 0.32.
In the case of UAACAGGGGGCCACAGCAGAAGCGUUCACGUCGCAGCCCUUGUCAGAUUCUGGUGUAUCUGCGAAUUCUGCUGUAUAUCUC [C40U A56U], the self-cleavage turned out to be 0.32.
The same measure for UAACAGGGGGCCACAGCAGAAGCGUUCACGUCGCAGCCCUUGUCAGAUUCUGGUGGAUCUGCGAAUUCUGCUGUAUAUCUC [C40U A56G]: 0.48; for UAACAGGGGGCCACAGCAGAAGCGUUCACGUCGCAGCCCUUGUCAGACUCUGGUGAAUCUGCGAAUUCUGCUGUAUAUCUC [C40U U48C]: 0.25; for UAACAGGGGGCCACAGCAGAAGCGUUCACGUCGCAGCCCUUGUCAGAUUCUGGUGAAUCUGCGAAUUCCGCUGUAUAUCUC [C40U U69C]: 0.36.
For UAACAGGGGGCCACAGCAGAAGCGUUCACGUCGCAGCCCUUGUCAGAUUCUGGUGAAUCUGCGAAUUCGGCUGUAUAUCUC [C40U U69G], the self-cleavage was found to be 0.57.
As for UAACAGGGGGCCACAGCAGAAGCGUUCACGUCGCAGCCCUUGUCAGAUUCUGGUGAAUCUGCGAAUUCAGCUGUAUAUCUC [C40U U69A], the self-cleavage stood at 0.41.
